From the Human Domainome abundance scans (Beltran et al. 2025)
± gives the uncertainty stated by the source.

B1: Ankyrin repeat and SAM domain-containing protein 6, residues 774 to 836; numbered along this chain, Q68DC2 (parent)
chain: DEDELTGILKKLSLEKYQPIFEEQEVDMEAFLTLTDGDLKELGIKTDGSRQQILAAISELNAG

Variants of: B1
Assay: abundance fitness (aPCA) (normalised: wild type 0, dead -1); higher = more abundant; growth selection in yeast, the domain comes from the species named
Details: Homo sapiens

Variant | abundance fitness
DEDELTGILKKLSLEKYQPIFEEQEVDMEAFLTLTDGDLKELIIKTDGSRQQILAAISELNAG [G43I] | -1.07 ± 0.12
DEDELTGILKKLSLEKYQPIFEEQEVDMEAFLTLTDGDLKELHIKTDGSRQQILAAISELNAG [G43H] | -0.556 ± 0.14
DEDELTGILKKLSLEKYQPIFEEQEVDMEAFLTLTDGDLKELCIKTDGSRQQILAAISELNAG [G43C] | -0.742 ± 0.11
DEDELTGILKKLSLEKYQPIFEEQEVDMEAFLTLTDGDLKELDIKTDGSRQQILAAISELNAG [G43D] | -0.199 ± 0.078
DEDELTGILKKLSLEKYQPIFEEQEVDMEAFLTLTDGDLKELWIKTDGSRQQILAAISELNAG [G43W] | -1.16 ± 0.15
DEDELTGILKKLSLEKYQPIFEEQEVDMEAFLTLTDGDLKELQIKTDGSRQQILAAISELNAG [G43Q] | -0.608 ± 0.11
DEDELTGILKKLSLEKYQPIFEEQEVDMEAFLTLTDGDLKELSIKTDGSRQQILAAISELNAG [G43S] | -0.477 ± 0.061
DEDELTGILKKLSLEKYQPIFEEQEVDMEAFLTLTDGDLKELPIKTDGSRQQILAAISELNAG [G43P] | -0.683 ± 0.14
DEDELTGILKKLSLEKYQPIFEEQEVDMEAFLTLTDGDLKELMIKTDGSRQQILAAISELNAG [G43M] | -0.611 ± 0.079
DEDELTGILKKLSLEKYQPIFEEQEVDMEAFLTLTDGDLKELGPKTDGSRQQILAAISELNAG [I44P] | -0.746 ± 0.09
DEDELTGILKKLSLEKYQPIFEEQEVDMEAFLTLTDGDLKELGGKTDGSRQQILAAISELNAG [I44G] | -0.592 ± 0.073
DEDELTGILKKLSLEKYQPIFEEQEVDMEAFLTLTDGDLKELGFKTDGSRQQILAAISELNAG [I44F] | -0.144 ± 0.065
DEDELTGILKKLSLEKYQPIFEEQEVDMEAFLTLTDGDLKELGVKTDGSRQQILAAISELNAG [I44V] | 0.037 ± 0.047
DEDELTGILKKLSLEKYQPIFEEQEVDMEAFLTLTDGDLKELGRKTDGSRQQILAAISELNAG [I44R] | -0.676 ± 0.057
DEDELTGILKKLSLEKYQPIFEEQEVDMEAFLTLTDGDLKELGCKTDGSRQQILAAISELNAG [I44C] | -0.458 ± 0.061
DEDELTGILKKLSLEKYQPIFEEQEVDMEAFLTLTDGDLKELGAKTDGSRQQILAAISELNAG [I44A] | -0.574 ± 0.055
DEDELTGILKKLSLEKYQPIFEEQEVDMEAFLTLTDGDLKELGTKTDGSRQQILAAISELNAG [I44T] | -0.555 ± 0.064
DEDELTGILKKLSLEKYQPIFEEQEVDMEAFLTLTDGDLKELGSKTDGSRQQILAAISELNAG [I44S] | -0.651 ± 0.05
DEDELTGILKKLSLEKYQPIFEEQEVDMEAFLTLTDGDLKELGEKTDGSRQQILAAISELNAG [I44E] | -0.586 ± 0.073
DEDELTGILKKLSLEKYQPIFEEQEVDMEAFLTLTDGDLKELGMKTDGSRQQILAAISELNAG [I44M] | -0.253 ± 0.058
DEDELTGILKKLSLEKYQPIFEEQEVDMEAFLTLTDGDLKELGNKTDGSRQQILAAISELNAG [I44N] | -0.645 ± 0.095
DEDELTGILKKLSLEKYQPIFEEQEVDMEAFLTLTDGDLKELGLKTDGSRQQILAAISELNAG [I44L] | -0.245 ± 0.042

Variant | abundance fitness
DEDELTGILKKLSLEKYQPIFEEQEVDMEAFLTLTDGDLKELGHKTDGSRQQILAAISELNAG [I44H] | -0.806 ± 0.13
DEDELTGILKKLSLEKYQPIFEEQEVDMEAFLTLTDGDLKELGQKTDGSRQQILAAISELNAG [I44Q] | -0.643 ± 0.086
DEDELTGILKKLSLEKYQPIFEEQEVDMEAFLTLTDGDLKTLGIKTDGSRQQILAAISELNAG [E41T] | -0.039 ± 0.053
DEDELTGILKKLSLEKYQPIFEEQEVDMEAFLTLTDGDLKRLGIKTDGSRQQILAAISELNAG [E41R] | -0.049 ± 0.039
DEDELTGILKKLSLEKYQPIFEEQEVDMEAFLTLTDGDLKLLGIKTDGSRQQILAAISELNAG [E41L] | -0.205 ± 0.041
DEDELTGILKKLSLEKYQPIFEEQEVDMEAFLTLTDGDLKPLGIKTDGSRQQILAAISELNAG [E41P] | -0.658 ± 0.054
DEDELTGILKKLSLEKYQPIFEEQEVDMEAFLTLTDGDLKYLGIKTDGSRQQILAAISELNAG [E41Y] | -0.321 ± 0.068
DEDELTGILKKLSLEKYQPIFEEQEVDMEAFLTLTDGDLKSLGIKTDGSRQQILAAISELNAG [E41S] | -0.022 ± 0.039
DEDELTGILKKLSLEKYQPIFEEQEVDMEAFLTLTDGDLKMLGIKTDGSRQQILAAISELNAG [E41M] | -0.263 ± 0.049
DEDELTGILKKLSLEKYQPIFEEQEVDMEAFLTLTDGDLKWLGIKTDGSRQQILAAISELNAG [E41W] | -0.498 ± 0.052
DEDELTGILKKLSLEKYQPIFEEQEVDMEAFLTLTDGDLKHLGIKTDGSRQQILAAISELNAG [E41H] | -0.045 ± 0.051
DEDELTGILKKLSLEKYQPIFEEQEVDMEAFLTLTDGDLKDLGIKTDGSRQQILAAISELNAG [E41D] | -0.044 ± 0.073
DEDELTGILKKLSLEKYQPIFEEQEVDMEAFLTLTDGDLKVLGIKTDGSRQQILAAISELNAG [E41V] | -0.232 ± 0.044
DEDELTGILKKLSLEKYQPIFEEQEVDMEAFLTLTDGDLKILGIKTDGSRQQILAAISELNAG [E41I] | -0.472 ± 0.089
DEDELTGILKKLSLEKYQPIFEEQEVDMEAFLTLTDGDLKQLGIKTDGSRQQILAAISELNAG [E41Q] | 0.044 ± 0.051
DEDELTGILKKLSLEKYQPIFEEQEVDMEAFLTLTDGDLKFLGIKTDGSRQQILAAISELNAG [E41F] | -0.376 ± 0.06
DEDELTGILKKLSLEKYQPIFEEQEVDMEAFLTLTDGDLKALGIKTDGSRQQILAAISELNAG [E41A] | -0.047 ± 0.043
DEDELTGILKKLSLEKYQPIFEEQEVDMEAFLTLTDGDLKNLGIKTDGSRQQILAAISELNAG [E41N] | -0.052 ± 0.092
DEDELTGILKKLSLEKYQPIFEEQEVDMEAFLTLTDGDLKKLGIKTDGSRQQILAAISELNAG [E41K] | -0.109 ± 0.059
DEDELTGILKKLSLEKYQPIFEEQEVDMEAFLTLTDGDLKCLGIKTDGSRQQILAAISELNAG [E41C] | -0.113 ± 0.061
DEDELTGILKKLSLEKYQPIFEEQEVDMEAFLTLTDGDLKGLGIKTDGSRQQILAAISELNAG [E41G] | -0.092 ± 0.067
